# According to US20210269496A1 (PANDION OPERATIONS, published 2021):
# Substitutions are numbered along the chain they refer to. Names may count otherwise.
# T1: CD25 (Homo sapiens (Human), UniProt P01589 22-240)
# T1 construct: also called IL-2R alpha chain
# T1 sequence: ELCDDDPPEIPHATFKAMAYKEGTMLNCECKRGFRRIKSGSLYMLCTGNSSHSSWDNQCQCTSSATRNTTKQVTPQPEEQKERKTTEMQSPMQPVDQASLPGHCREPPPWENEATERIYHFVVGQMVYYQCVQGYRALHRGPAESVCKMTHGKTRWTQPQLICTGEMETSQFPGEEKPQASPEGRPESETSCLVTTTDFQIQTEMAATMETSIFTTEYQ
# B1: human IL-2 mutein polypeptide fused N-terminally to human IgG1 Fc domain (SEQ ID NO: 57) (Fc fusion)
# chain: APTSSSTKKTQLQLEHLLLDLQMILNGINNYKNPKLTRMLTFKFYMPKKATELKHLQCLEEELKPLEEALNLAPSKNFHLRPRDLISDINVIVLELKGSETTFMCEYADETATIVEFLNRWITFSQSIISTLTGGGGSGGGGSGGGGSGGGGSDKTHTCPPCPAPEAAGAPSVFLFPPKPKDTLMISRTPEVTCVVVDVSHEDPEVKFNWYVDGVEVHNAKTKPREEQYNSTYRVVSVLTVLHQDWLNGKEYKCKVSNKALPAPIEKTISKAKGQPREPQVYTLPPSREEMTKNQVSLTCLVKGFYPSDIAVEWESNGQPENNYKTTPPVLDSDGSFFLYSKLTVDKSRWQQGNVFSCSVMHEALHNHYTQKSLSLSPG
# notes: also called IL-2 N88D V69A, Q74P-G4Sx4-Fc
# B2: SEQ ID NO 53 (Fc fusion)
# chain: B1 chain with L53I
# notes: also called IL-2 L53I N88D V69A, Q74P,C125S-G4Sx4-Fc
# B3: SEQ ID NO 56 (Fc fusion)
# chain: B1 chain with L118I
# notes: also called IL-2 L118I N88D V69A, Q74P, C125S-G4Sx4-Fc
# B4: SEQ ID NO 55 (Fc fusion)
# chain: B1 chain with L80I
# notes: also called IL-2 L80I N88D V69A, C125S Q74P-G4Sx4-Fc
# B5: SEQ ID NO 54 (Fc fusion)
# chain: B1 chain with L56I
# notes: also called IL-2 L56I N88D V69A, Q74P, C125S-G4Sx4-Fc
# Target: T1, CD25
# Experiment: ELISA, CD25 coated at 0.5 µg/mL, detection with biotinylated anti-IL-2 polyclonal
# Description: An immunosorbent plate was coated with CD25 at a concentration of 0.5 μg/mL in PBS pH 7.4, 75 μL/well, and incubated overnight at 4° C. Wells were washed with PBS pH 7.4 containing 0.05% Tween-20 (wash buffer) three times, and then blocked with 200 μL/well 1% BSA in PBS pH 7.4 (block buffer) for two hours at room temperature. After three washes with wash buffer IL-2 muteins SEQ ID NO: 53, SEQ ID NO: 54, SEQ ID NO: 55, SEQ ID NO: 56 were diluted to eleven-two fold serial dilution in PBS containing 1% BSA and 0.05% Tween-20 (assay buffer) with 2 nM being the highest concentration. The diluted material was added to the CD25 coated plate at 75 μL/well for 1 hour at room temperature. After three washes with wash buffer, a goat biotinylated anti-IL-2 polyclonal antibody, diluted to 0.05 μg/mL in assay buffer, was added to the plate at 75 μL/well for 1 hour at room temperature. After three washes with wash buffer high sensitivity streptavidin HRP diluted in assay buffer at 1:5000 was added to the plate at 75 μL/well for 15 minutes at room temperature. After three washes with wash buffer and 1 wash with wash buffer (with no Tween-20), the assay was developed with TMB, and stopped with 1N HCL. OD 450 nm was measured. The experiment included appropriate controls for non-specific binding of the molecules to the plate/block in the absence of CD25. […] Additionally, there was no detection of any compound at any concentration tested, when CD25 was not present on the plate surface, indicating none of the test compounds were interacting non-specifically with the plate surface. Thus, the muteins of Example 19 can bind to CD25.
row,Molecule,EC50 [nM]
1,B1,< 1
2,B2,< 1
3,B3,< 1
4,B4,< 1
5,B5,< 1

# Target: mouse PD-1 on primary mouse T cell blasts (mouse) (UniProt Q02242)
# Experiment: cell-based or functional assay
# Chain of mouse PD-1 on primary mouse T cell blasts (mouse) (Q02242 25-288): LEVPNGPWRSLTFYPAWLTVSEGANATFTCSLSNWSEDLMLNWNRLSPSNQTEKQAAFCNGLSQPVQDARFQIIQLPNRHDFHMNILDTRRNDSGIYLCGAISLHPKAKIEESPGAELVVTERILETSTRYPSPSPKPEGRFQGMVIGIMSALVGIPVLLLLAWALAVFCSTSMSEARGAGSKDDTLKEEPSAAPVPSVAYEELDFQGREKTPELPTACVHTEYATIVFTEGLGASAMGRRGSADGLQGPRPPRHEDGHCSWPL
row,Molecule,Mouse agonist-CTG: IC50 [nM]
1,PD-L1 (reference in the table of Example 36) (ligand),2.4
